These results are taken from paper PMC3247843.

This test concerns the target soluble human FcRn (human) (UniProt P55899). Briefly: SPR.
Sequence of UniProt P55899 (P55899 24-297, chain 1 of 2): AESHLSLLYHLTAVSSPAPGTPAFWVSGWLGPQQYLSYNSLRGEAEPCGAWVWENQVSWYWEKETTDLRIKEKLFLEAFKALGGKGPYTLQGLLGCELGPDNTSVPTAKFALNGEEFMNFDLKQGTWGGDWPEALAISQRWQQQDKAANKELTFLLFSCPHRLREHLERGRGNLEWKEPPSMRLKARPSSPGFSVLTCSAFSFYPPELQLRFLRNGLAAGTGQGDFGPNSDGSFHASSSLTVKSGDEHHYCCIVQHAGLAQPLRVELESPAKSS
Sequence of UniProt P55899 (P61769 21-119, chain 2 of 2, further chain): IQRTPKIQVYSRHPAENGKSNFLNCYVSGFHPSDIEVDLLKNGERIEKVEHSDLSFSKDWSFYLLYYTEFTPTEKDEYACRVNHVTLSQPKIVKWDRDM

“recombinant human IgG3 (anti-Streptococcus pneumoniae serotype 6) (antibody)”: the KD relative to WT IgG1 (fold of the KD of WT IgG1) was 2.
In turn, recombinant human IgG1–H435R (antibody) displayed a KD relative to WT IgG1 (% higher than the KD of WT IgG1) of 50.
